Laboratory results reported in patent publication US7326418B2, “Identification of novel factors that block programmed cell death or apoptosis by targeting JNK” (University of Chicago, priority 2001, dated 2008).

Target: T1, GST-MKK7 (Homo sapiens, UniProt O14733, Q133P/Q94H)
T1 construct: made in house; host or cells: E. coli BL21
T1 sequence (O14733 1-401 Q94H/Q133P limits assumed): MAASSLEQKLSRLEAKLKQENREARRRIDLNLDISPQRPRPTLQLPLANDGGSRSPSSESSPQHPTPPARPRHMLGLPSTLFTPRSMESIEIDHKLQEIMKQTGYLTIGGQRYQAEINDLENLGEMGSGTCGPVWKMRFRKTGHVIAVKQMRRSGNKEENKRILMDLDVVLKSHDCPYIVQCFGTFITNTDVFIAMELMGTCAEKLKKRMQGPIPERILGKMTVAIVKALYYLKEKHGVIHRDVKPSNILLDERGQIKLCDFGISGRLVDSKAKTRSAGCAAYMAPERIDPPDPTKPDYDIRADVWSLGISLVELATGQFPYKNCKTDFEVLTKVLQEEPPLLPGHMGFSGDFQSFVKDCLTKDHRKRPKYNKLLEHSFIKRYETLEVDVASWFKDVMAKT
Assay: In vitro pull-down with purified proteins: His6/T7-tagged proteins binding to GST-MKK7
Conditions: JIP1 used under non-saturating conditions, read-out: half maximum binding (HMB) value for binding to GST-MKK7
Text: Protein levels are shown (bottom). b, g, Coomassie brilliant blue staining (CS) showing purity of the proteins used in (c) and (d, e), respectively. c, In vitro pull-down assays with purified proteins showing direct interaction between His6/T7-Gadd45β (His6disclosed as SEQ ID NO: 46) and GST-MKK7. Precipitated GST proteins and bound His6/T7-tagged proteins(His6 disclosed as SEQ ID NO: 46) were visualized by CS and Western blotting (WB) with anti-T7 antibodies, respectively. Inputs of His6/T7-tagged proteins (His6 disclosed as SEQ ID NO: 46) are indicated. The fraction of His6/T7-Gadd45β (His6 disclosed as SEQ ID NO: 46) and His6/T7-JIP1 (His6 disclosed as SEQ ID NO: 46) binding to GST-MKK7 (expressed as arbitrary units [a.u.]; left) was calculated relatively to a standard curve generated with known protein concentrations^19. d, e, Kinase assays showing specific inhibition of active MKK7 by purified GST-Gadd45β and His6-Gadd45β (His6 disclosed as SEQ ID NO: 46), in vitro. […]
Interaction of endogenous Gadd45β and MKK7 was detected readily (FIG. 28a). […]
GST precipitations with in vitro-translated proteins or purified proteins (FIG. 26-30), and kinase assays were performed. […] MKK7 phosphorylation was monitored by performing immunoprecipitations with anti-P-MKK7 antibodies (developed at Cell Signaling) followed by Western blots with anti-total MKK7 antibodies. […]

Kd: ~390 nM
B1: Gadd45β: purified recombinant His6-tagged Gadd45β protein; also used generically for the recombinant Gadd45β proteins (protein, UniProt O75293 1-160, looked up)
Growth arrest and DNA …: MTLEELVACDNAAQKMQTVTAAVEELLVAAQRQDRLTVGVYESAKLMNVDPDSVVLCLLAIDEEEEDDIALQIHFTLIQSFCCDNDINIVRVSGMQRLAQLLGEPAETQGTTEARDLHCLLVTNPHTDAWKSHGLVEVASYCEESRGNNQWVPYISLQER
modifications: His6 tag
notes: purified recombinant His6-tagged Gadd45β protein; also used generically for the recombinant Gadd45β proteins
